Measurements from patent publication US20240083991A1 (Pfizer, published 2024).
Several values for one entry are separate records, joined by “and”; a condition that tells them apart may be missing. Equal entries are not always repeated. Where two headings read alike, the source gives them in different places.

Tests used:
cyno BMP9 (mature) [1] = target: T1, cyno BMP9 (mature) (cynomolgus monkey, UniProt G7PEU8 320-429); experiment: cell-based or functional assay
T1 sequence: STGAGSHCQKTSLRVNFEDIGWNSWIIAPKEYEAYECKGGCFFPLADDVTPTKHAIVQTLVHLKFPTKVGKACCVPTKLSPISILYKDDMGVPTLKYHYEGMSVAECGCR

human mature BMP9 [2] = target: T2, human mature BMP9 (human, UniProt Q9UK05 320-429); experiment: cell-based or functional assay
T2 sequence: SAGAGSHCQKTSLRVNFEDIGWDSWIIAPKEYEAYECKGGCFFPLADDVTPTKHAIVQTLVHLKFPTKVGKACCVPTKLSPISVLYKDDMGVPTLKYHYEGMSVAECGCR

rat BMP9 (mature) [3] = target: T3, rat BMP9 (mature) (rat, UniProt M0RB87 320-430, Chemically biotinylated for capture on the SPR chip; sites not stated. Natural mature BMP9 is a disulfide-linked homodimer; one monomer chain is given.); experiment: cell-based or functional assay
T3 sequence: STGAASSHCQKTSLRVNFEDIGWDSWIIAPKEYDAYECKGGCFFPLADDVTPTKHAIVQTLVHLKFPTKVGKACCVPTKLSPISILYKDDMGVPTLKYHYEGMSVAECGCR

rat BMP9 (mature) [4] = target: T3, rat BMP9 (mature); experiment: cell-based or functional assay; remark: listed apart in the source
human mature BMP9 [5] = target: T2, human mature BMP9; experiment: competition ELISA: antibody mixed with 0.6 nM BMP9-biotin, binding to coated BMPRII (1 µg/ml) detected
Method: For competition ELISAs, each receptor protein was coated on a 384-well ELISA plate at its optimal coating concentration, 20 μl/well in PBS-CMF at 4° C. overnight. The next day, plates were washed 3 times with PBS+0.05% TWEEN™ 20 and blocked with PBS+1% BSA for 1 hr at RT with shaking. Anti-BMP9 Abs were serially diluted 3-fold in PBS+1% BSA, starting from 100 nM, then mixed with the same volume of the optimal concentration of biotinylated BMP9. The final concentration of biotinylated BMP9 corresponded to the EC₉₀ for each receptor, as determined in a preliminary experiment described above.
Serially diluted Abs were incubated with biotinylated BMP9 for at least 15 min at RT. Plates were washed as before, followed by addition of serially diluted Abs and the biotinylated BMP9 mixture. After incubating for 1 hr at RT, plates were washed 3 times with PBS+0.05% TWEEN™ 20. Secondary antibody was added (HRP-Streptavidin from BioLegend, cat #405210, 1:2000), followed by 1 hr incubation at RT. Plates were washed as before, signal was developed using TMB substrate, and the reaction stopped with 0.18 M H₂SO₄. Absorbance was read at 450 nm on an ENVISION® plate reader (Perkin Elmer).

human mature BMP9 [6] = target: T2, human mature BMP9; experiment: method not stated (legend of the crystal structure figure)
human mature BMP9 [7] = target: T2, human mature BMP9; experiment: cell-based or functional assay; remark: listed apart in the source
human mature BMP9 [8] = target: T2, human mature BMP9; experiment: cell-based or functional assay; remark: listed apart in the source
human mature BMP9 [9] = target: T2, human mature BMP9; experiment: cell-based or functional assay; remark: listed apart in the source
cyno BMP9 (mature) [10] = target: T1, cyno BMP9 (mature); experiment: cell-based or functional assay; remark: listed apart in the source
rat BMP9 (mature) [11] = target: T3, rat BMP9 (mature); experiment: cell-based or functional assay; remark: listed apart in the source
human mature BMP9 [12] = target: T2, human mature BMP9; experiment: cell-based or functional assay; remark: listed apart in the source
rat BMP9 (mature) [13] = target: T3, rat BMP9 (mature); experiment: cell-based or functional assay; remark: listed apart in the source
cyno BMP9 (mature) [14] = target: T1, cyno BMP9 (mature); experiment: cell-based or functional assay; remark: listed apart in the source
human mature BMP9 [15] = target: T2, human mature BMP9; experiment: cell-based or functional assay; remark: listed apart in the source
human mature BMP9 [16] = target: T2, human mature BMP9; experiment: cell-based or functional assay; remark: listed apart in the source
cyno BMP9 (mature) [17] = target: T1, cyno BMP9 (mature); experiment: cell-based or functional assay; remark: listed apart in the source

B1: Ab1076 (antibody, human IgG1, lambda, V domains shown)
VH: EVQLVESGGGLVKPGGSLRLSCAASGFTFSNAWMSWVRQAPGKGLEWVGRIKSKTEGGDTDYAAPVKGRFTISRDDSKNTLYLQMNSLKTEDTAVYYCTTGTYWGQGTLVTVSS
VL: QSVLTQPPSASGTPGQRVTISCSVTNTDIDIFNVHWYQQLPGTAPKLLFFHDYRPSGVSDRFSGSKSGTSASLAIVGLQSEDEGYYYCAGLDEAMRGPVFGGGTKLTVLG
notes: The heavy chain can be prepared with or without the C-terminal lysine
IC50 (read off the curve): Cyno BMP9-induced pSMAD1/5/9 nuclear translocation, TIME cells (cyno BMP9 (mature) [1]): ~0.1 nM | IC50 (read off the curve): Human BMP9-induced pSMAD1/5/9 nuclear translocation, TIME cells (human mature BMP9 [2]): ~0.1 nM | IC50 (read off the curve): Rat BMP9-induced pSMAD1/5/9 nuclear translocation, TIME cells (rat BMP9 (mature) [3]): ~0.1 nM | IC50 (read off the curve): BMP9-induced pSMAD1/5/9 nuclear translocation, rat LSEC (rat BMP9 (mature) [4]): ~0.3 nM | IC50 (read off the curve) (human mature BMP9 [5]): ~0.3 nM | fold increase in binding affinity relative to Ab93 (human mature BMP9 [6]): ~20 fold | IC50 (read off the curve): BMP9-induced pSMAD2 nuclear translocation, TIME cells (human mature BMP9 [7]): ~40 pM | IC50 (read off the curve): BMP9-induced pSMAD1/5/9 nuclear translocation, TIME cells (human mature BMP9 [8]): ~30 pM | IC50 (read off the curve): BMP9-induced pSMAD2 nuclear translocation, HPAEC (human mature BMP9 [9]): ~30 pM | IC50, inhibition of BMP9-induced phospho-SMAD2 nuclear translocation in endothelial cells (cyno BMP9 (mature) [10]): 0.027 to 0.042 nM | IC50, inhibition of BMP9-induced phospho-SMAD2 nuclear translocation in endothelial cells (rat BMP9 (mature) [11]): 0.465 nM and 1 nM | IC50 (read off the curve): BMP9-induced pSMAD2 nuclear translocation, TIME cells (human mature BMP9 [12]): ~40 pM | IC50 (read off the curve): BMP9-induced pSMAD2 nuclear translocation, rat LSEC (rat BMP9 (mature) [13]): ~0.5 nM | IC50 (read off the curve): BMP9-induced pSMAD2 nuclear translocation, cynomolgus monkey PAEC (cyno BMP9 (mature) [14]): 16 to 30 pM | IC50 (read off the curve): BMP9-induced pSMAD1/5/9 nuclear translocation, HPAEC (human mature BMP9 [15]): ~40 pM | IC50 (read off the curve): BMP9-induced pSMAD1/5/9 nuclear translocation, TIME cells (human mature BMP9 [16]): ~30 pM | IC50 (read off the curve): BMP9-induced pSMAD1/5/9 nuclear translocation, cynomolgus monkey PAEC (cyno BMP9 (mature) [17]): ~20 pM
